Laboratory results: publication PMC3214066

Biological target: Collagen S (soluble, type I, from calf skin) (calf) (UniProt P02453)
Assay: radioligand binding; collagen I monomers (5 µg/mL in 1% acetic acid + 1% NaCl) coated on 96-well plates, blocked with 1% BSA; 125I-labelled A1M (50×10^3 cpm) with increasing unlabelled A1M in PBS + 0.05% Tween, overnight at 4°C; Scatchard analysis

Chain of UniProt P02453 (P02453 162-1217, chain 1 of 2): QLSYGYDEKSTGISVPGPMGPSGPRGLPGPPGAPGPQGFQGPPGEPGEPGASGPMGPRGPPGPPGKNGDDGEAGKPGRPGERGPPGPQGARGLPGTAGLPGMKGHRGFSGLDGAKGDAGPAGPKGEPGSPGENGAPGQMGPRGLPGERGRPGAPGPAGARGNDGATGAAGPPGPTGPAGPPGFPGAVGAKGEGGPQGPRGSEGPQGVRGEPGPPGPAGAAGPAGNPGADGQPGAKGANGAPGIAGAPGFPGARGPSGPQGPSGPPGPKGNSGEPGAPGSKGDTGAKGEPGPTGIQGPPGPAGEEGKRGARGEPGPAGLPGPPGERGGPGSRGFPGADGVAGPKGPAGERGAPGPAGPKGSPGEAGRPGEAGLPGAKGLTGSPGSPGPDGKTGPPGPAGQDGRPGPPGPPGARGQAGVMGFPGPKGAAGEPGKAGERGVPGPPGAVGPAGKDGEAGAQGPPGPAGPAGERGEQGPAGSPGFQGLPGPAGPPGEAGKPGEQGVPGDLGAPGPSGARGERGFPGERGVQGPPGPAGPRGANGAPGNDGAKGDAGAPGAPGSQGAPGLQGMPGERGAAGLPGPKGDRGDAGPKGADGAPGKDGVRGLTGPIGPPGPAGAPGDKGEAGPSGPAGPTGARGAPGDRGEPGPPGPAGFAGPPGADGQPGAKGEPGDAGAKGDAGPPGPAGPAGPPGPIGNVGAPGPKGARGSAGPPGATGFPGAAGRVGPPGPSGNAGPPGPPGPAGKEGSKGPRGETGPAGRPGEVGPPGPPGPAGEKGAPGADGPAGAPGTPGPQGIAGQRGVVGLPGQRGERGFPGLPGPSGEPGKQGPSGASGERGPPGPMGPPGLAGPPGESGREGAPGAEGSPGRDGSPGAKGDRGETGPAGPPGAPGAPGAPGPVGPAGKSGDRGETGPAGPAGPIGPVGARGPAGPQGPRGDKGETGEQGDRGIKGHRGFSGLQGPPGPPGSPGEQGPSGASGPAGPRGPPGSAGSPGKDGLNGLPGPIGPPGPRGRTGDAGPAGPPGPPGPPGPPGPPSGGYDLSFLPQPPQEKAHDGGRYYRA
Chain of UniProt P02453 (P02465 80-1117, chain 2 of 2, further chain): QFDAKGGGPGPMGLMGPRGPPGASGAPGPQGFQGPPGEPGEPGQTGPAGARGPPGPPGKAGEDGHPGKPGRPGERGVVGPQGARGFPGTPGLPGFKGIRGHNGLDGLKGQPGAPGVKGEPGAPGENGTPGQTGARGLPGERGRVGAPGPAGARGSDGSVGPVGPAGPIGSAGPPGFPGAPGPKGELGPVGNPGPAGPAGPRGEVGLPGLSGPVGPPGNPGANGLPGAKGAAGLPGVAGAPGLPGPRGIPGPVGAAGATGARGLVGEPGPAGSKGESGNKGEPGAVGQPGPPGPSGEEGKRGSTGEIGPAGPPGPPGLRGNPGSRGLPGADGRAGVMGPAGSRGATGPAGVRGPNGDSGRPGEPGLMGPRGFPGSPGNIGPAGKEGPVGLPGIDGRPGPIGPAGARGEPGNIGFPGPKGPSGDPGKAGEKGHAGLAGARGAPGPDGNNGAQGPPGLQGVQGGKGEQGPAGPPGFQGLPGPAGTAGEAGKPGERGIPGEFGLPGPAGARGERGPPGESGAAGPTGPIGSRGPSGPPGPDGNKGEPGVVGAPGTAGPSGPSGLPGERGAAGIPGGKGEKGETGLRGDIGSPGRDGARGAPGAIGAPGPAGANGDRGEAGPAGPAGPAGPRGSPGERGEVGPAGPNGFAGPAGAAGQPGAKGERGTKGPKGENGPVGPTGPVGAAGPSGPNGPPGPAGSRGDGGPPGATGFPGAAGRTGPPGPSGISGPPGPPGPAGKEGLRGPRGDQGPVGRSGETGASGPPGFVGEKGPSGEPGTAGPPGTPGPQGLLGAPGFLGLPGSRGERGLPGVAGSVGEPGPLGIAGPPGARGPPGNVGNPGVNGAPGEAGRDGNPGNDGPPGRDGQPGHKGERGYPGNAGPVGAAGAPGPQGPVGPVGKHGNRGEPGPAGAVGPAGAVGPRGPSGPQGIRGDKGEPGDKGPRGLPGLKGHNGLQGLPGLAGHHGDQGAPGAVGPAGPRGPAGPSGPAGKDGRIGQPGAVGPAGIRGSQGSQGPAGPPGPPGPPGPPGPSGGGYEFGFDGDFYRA

Kd: 960 nM
B1: Recombinant human α1-microglobulin (A1M) (natural protein)
chain: GPVPTPPDNIQVQENFNISRIYGKWYNLAIGSTCPWLKKIMDRMTVSTLVLGEGATEAEISMTSTRWRKGVCEETSGAYEKTDTDGKFLYHKSKWNITMESYVVHTNYDEYAIFLTKKFSRHHGPTITAKLYGRAPQLRETLLQDFRVVAQGVGIPEDSIFTMADRGECVPGEQEPEPILIPRV
modifications: 125I label (chloramine T method) on the tracer in the solid phase binding assay; colloidal gold label (4-5 nm) in the electron microscopy binding experiment
